The values below are quoted from earlier work in publication PMC3267162.

Where two headings read alike, the source gives them in different places.

The target of data set [1] is PTPzeta (Homo sapiens) (UniProt P23471).
The target is the same in data set [2]. The source holds these as a separate data set.
Data set [3] deals with LRP (Homo sapiens) (UniProt Q07954).

Sequence of UniProt P23471 (P23471 25-1636): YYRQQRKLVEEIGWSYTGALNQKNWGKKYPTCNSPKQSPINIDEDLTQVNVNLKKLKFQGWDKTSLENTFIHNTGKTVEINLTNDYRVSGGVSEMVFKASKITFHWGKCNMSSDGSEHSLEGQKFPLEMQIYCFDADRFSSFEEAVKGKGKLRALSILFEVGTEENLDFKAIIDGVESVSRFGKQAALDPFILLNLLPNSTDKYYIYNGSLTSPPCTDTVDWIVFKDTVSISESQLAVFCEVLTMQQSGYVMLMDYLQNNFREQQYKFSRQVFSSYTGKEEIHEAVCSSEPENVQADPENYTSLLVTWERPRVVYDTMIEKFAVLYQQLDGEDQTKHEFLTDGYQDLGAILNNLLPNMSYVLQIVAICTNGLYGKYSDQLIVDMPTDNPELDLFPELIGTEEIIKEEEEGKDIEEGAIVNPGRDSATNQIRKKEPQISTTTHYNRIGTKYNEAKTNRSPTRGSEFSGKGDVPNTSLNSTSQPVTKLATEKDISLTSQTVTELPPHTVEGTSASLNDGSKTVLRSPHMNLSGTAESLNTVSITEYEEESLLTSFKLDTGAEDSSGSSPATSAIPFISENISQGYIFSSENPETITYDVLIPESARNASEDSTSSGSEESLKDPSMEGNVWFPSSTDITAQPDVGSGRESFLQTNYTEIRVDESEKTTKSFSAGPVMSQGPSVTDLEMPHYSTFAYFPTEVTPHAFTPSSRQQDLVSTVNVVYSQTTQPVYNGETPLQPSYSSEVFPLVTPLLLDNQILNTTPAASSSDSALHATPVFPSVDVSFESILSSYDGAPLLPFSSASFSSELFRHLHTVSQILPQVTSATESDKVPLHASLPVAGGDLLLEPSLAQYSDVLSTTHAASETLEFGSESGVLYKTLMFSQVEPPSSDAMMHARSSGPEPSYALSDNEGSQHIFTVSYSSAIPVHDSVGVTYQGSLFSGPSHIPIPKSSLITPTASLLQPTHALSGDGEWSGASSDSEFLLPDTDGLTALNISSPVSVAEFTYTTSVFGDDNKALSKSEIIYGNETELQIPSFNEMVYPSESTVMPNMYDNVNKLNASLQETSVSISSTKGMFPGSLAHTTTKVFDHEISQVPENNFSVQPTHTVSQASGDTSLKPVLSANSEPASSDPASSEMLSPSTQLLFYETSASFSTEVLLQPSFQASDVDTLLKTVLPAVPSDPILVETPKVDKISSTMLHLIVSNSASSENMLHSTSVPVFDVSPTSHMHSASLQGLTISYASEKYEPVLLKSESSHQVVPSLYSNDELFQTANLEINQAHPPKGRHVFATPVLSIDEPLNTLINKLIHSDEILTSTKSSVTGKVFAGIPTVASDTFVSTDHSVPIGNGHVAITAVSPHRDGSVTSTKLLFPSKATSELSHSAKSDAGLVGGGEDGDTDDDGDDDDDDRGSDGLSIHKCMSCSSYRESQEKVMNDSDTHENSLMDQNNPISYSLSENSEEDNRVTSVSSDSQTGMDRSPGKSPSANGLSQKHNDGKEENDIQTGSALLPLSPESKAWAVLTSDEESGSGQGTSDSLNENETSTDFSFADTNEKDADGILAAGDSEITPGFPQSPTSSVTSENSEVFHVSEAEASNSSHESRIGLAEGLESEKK

One may read the Kd as a measure of binding affinity in units of concentration. For the substance Midkine (from UniProt P21741), the Kd in data set [1] was 8.8 nM; in data set [2], 0.58 nM; in data set [3], 3.5 nM.
